How the values were obtained:
[1] = target: Recombinant human TFPI protein; assay: BLI; fit kinetic; antibody as IgG; antigen as not_told; on the surface: binder; avidity not_told; conditions: 30.0 °C; for koff: pH 7.4
Human TFPI/His = assay: ELISA; fit not_stated; antibody as IgG; antigen as monomer; on the surface: target; avidity possible

Row | Substance | Koff Ratio (pH6.0/pH7.4) ([1]; pH 6.0, second pH 7.4) | koff [1] | koff ([1]; second pH 6.0) | EC50 (Human TFPI/His; pH 4.0) | EC50 (Human TFPI/His; pH 4.5) | EC50 (Human TFPI/His; pH 5.0) | EC50 (Human TFPI/His; pH 5.5) | EC50 (Human TFPI/His; pH 6.0) | EC50 (Human TFPI/His; pH 6.5) | EC50 (Human TFPI/His; pH 7.4)
1 | Concizumab | 0.9 | 4.01e-07 s⁻¹ | 3.6e-07 s⁻¹ | 16.5 ng/mL | 4.94 ng/mL | 4.83 ng/mL | 5 ng/mL | 6.1 ng/mL | 4.9 ng/mL | 4.25 ng/mL
2 | Marstacimab |  |  |  | 5.87 ng/mL | 3.15 ng/mL | 3.97 ng/mL | 2.18 ng/mL | 3.19 ng/mL | 3.87 ng/mL | 4.01 ng/mL

— patent EP4722251
